The chains are these.
B1: P1AE5739 (antibody, V domains shown)
VH: EVQLVESGGGVVQPGRSLRLSCAASGFSFSNYGMAWVRQAPGKGLEWVASISTGGGNTYYRDSVKGRFTISRDNAKNTLYLQMNSLRAEDTAVYYCTRHDRGGLYWGQGTMVTVSS
VL: DIVMTQSPLSLPVTPGEPASISCRSSKSLLHSNGITYVYWYLQKPGQSPQVLIYRMSNLASGVPDRFSGSGSGTDFTLKISRVEAEDVGVYHCGQLLENPYTFGQGTKLEIK
notes: Humanized 5F11 IgG; PGLALA Fc implied by the CAR-J assay; also called 5F11_VH1b + 5F11_VL1a
B2: P1AE5743 (antibody, V domains shown)
VH: B1 VH
VL: EIVLTQSPGTLSLSPGERATLSCRASKSLLHSNGITYVYWYQQKPGQAPRLLIYRMSNLASGIPDRFSGSGSGTDFTLTISRLEPEDFAVYHCGQLLENPYTFGQGTKLEIK
notes: Humanized 5F11 IgG; PGLALA Fc implied by the CAR-J assay; also called 5F11_VH1b + 5F11_VL2c
B3: P1AE5742 (antibody, V domains shown)
VH: B1 VH
VL: DIVMTQSPDSLAVSLGERATINCKSSKSLLHSNGITYVYWYQQKPGQPPKLLIYRMSNLASGVPDRFSGSGSGTDFTLTISSLQAEDVAVYHCGQLLENPYTFGQGTKLEIK
notes: Humanized 5F11 IgG; PGLALA Fc implied by the CAR-J assay; also called 5F11_VH1b + 5F11_VL2b
B4: P1AE5754 (antibody, V domains shown)
VH: B1 VH with R61A
VL: B2 VL
notes: Humanized 5F11 IgG; PGLALA Fc implied by the CAR-J assay; also called 5F11_VH1d + 5F11_VL2c
B5: P1AE5735 (antibody, V domains shown)
VH: B1 VH with E1Q, A75S
VL: B1 VL with Q47K
notes: Humanized 5F11 IgG; PGLALA Fc implied by the CAR-J assay; also called 5F11_VH1a + 5F11_VL1b
B6: P1AE5736 (antibody, V domains shown)
VH: B1 VH with E1Q, A75S
VL: B1 VL with V51L, L59R
notes: Humanized 5F11 IgG; PGLALA Fc implied by the CAR-J assay; also called 5F11_VH1a + 5F11_VL2a
B7: P1AE5759 (antibody, V domains shown)
VH: B1 VH with V11L, R16G
VL: B2 VL
notes: Humanized 5F11 IgG; PGLALA Fc implied by the CAR-J assay; also called 5F11_VH2b + 5F11_VL2c
B8: P1AE5756 (antibody, V domains shown)
VH: B1 VH with V11L, R16G
VL: B1 VL with Q47K
notes: Humanized 5F11 IgG; PGLALA Fc implied by the CAR-J assay; also called 5F11_VH2b + 5F11_VL1b
B9: P1AE5750 (antibody, V domains shown)
VH: B1 VH with R61A
VL: B1 VL
notes: Humanized 5F11 IgG; PGLALA Fc implied by the CAR-J assay; also called 5F11_VH1d + 5F11_VL1a
B10: P1AE5749 (antibody, V domains shown)
VH: B1 VH with E1Q, R61A, A75S
VL: B2 VL
notes: Humanized 5F11 IgG; PGLALA Fc implied by the CAR-J assay; also called 5F11_VH1c + 5F11_VL2c
B11: P1AE5757 (antibody, V domains shown)
VH: B1 VH with V11L, R16G
VL: B1 VL with V51L, L59R
notes: Humanized 5F11 IgG; PGLALA Fc implied by the CAR-J assay; also called 5F11_VH2b + 5F11_VL2a
B12: P1AE5740 (antibody, V domains shown)
VH: B1 VH
VL: B1 VL with Q47K
notes: Humanized 5F11 IgG; PGLALA Fc implied by the CAR-J assay; also called 5F11_VH1b + 5F11_VL1b
B13: P1AE5738 (antibody, V domains shown)
VH: B1 VH with E1Q, A75S
VL: B2 VL
notes: Humanized 5F11 IgG; PGLALA Fc implied by the CAR-J assay; also called 5F11_VH1a + 5F11_VL2c
B14: P1AE5762 (antibody, V domains shown)
VH: B1 VH with V11L, R16G, R61A
VL: B1 VL with V51L, L59R
notes: Humanized 5F11 IgG; PGLALA Fc implied by the CAR-J assay; also called 5F11_VH2d + 5F11_VL2a
B15: P1AE5752 (antibody, V domains shown)
VH: B1 VH with R61A
VL: B1 VL with V51L, L59R
notes: Humanized 5F11 IgG; PGLALA Fc implied by the CAR-J assay; also called 5F11_VH1d + 5F11_VL2a
B16: P1AE5753 (antibody, V domains shown)
VH: B1 VH with R61A
VL: B3 VL
notes: Humanized 5F11 IgG; PGLALA Fc implied by the CAR-J assay; also called 5F11_VH1d + 5F11_VL2b
B17: P1AE5758 (antibody, V domains shown)
VH: B1 VH with V11L, R16G
VL: B3 VL
notes: Humanized 5F11 IgG; PGLALA Fc implied by the CAR-J assay; also called 5F11_VH2b + 5F11_VL2b
B18: P1AE5755 (antibody, V domains shown)
VH: B1 VH with V11L, R16G
VL: B1 VL
notes: Humanized 5F11 IgG; PGLALA Fc implied by the CAR-J assay; also called 5F11_VH2b + 5F11_VL1a
B19: P1AE5761 (antibody, V domains shown)
VH: B1 VH with V11L, R16G, R61A
VL: B1 VL with Q47K
notes: Humanized 5F11 IgG; PGLALA Fc implied by the CAR-J assay; also called 5F11_VH2d + 5F11_VL1b
B20: P1AE5734 (antibody, V domains shown)
VH: B1 VH with E1Q, A75S
VL: B1 VL
notes: Humanized 5F11 IgG; PGLALA Fc implied by the CAR-J assay; also called 5F11_VH1a + 5F11_VL1a
B21: P1AE5764 (antibody, V domains shown)
VH: B1 VH with V11L, R16G, R61A
VL: B2 VL
notes: Humanized 5F11 IgG; PGLALA Fc implied by the CAR-J assay; also called 5F11_VH2d + 5F11_VL2c
B22: P1AE5746 (antibody, V domains shown)
VH: B1 VH with E1Q, R61A, A75S
VL: B1 VL with V51L, L59R
notes: Humanized 5F11 IgG; PGLALA Fc implied by the CAR-J assay; also called 5F11_VH1c + 5F11_VL2a
B23: P1AE5747 (antibody, V domains shown)
VH: B1 VH with E1Q, R61A, A75S
VL: B3 VL
notes: Humanized 5F11 IgG; PGLALA Fc implied by the CAR-J assay; also called 5F11_VH1c + 5F11_VL2b
B24: P1AE5737 (antibody, V domains shown)
VH: B1 VH with E1Q, A75S
VL: B3 VL
notes: Humanized 5F11 IgG; PGLALA Fc implied by the CAR-J assay; also called 5F11_VH1a + 5F11_VL2b
B25: P1AE5751 (antibody, V domains shown)
VH: B1 VH with R61A
VL: B1 VL with Q47K
notes: Humanized 5F11 IgG; PGLALA Fc implied by the CAR-J assay; also called 5F11_VH1d + 5F11_VL1b
B26: P1AE5760 (antibody, V domains shown)
VH: B1 VH with V11L, R16G, R61A
VL: B1 VL
notes: Humanized 5F11 IgG; PGLALA Fc implied by the CAR-J assay; also called 5F11_VH2d + 5F11_VL1a

The values below come from US20220259318A1 (Hoffmann-La Roche, published 2022).

Positions count from the first letter of the chain named. Values joined by “and” are separate entries in the source; they are usually repeats but may differ in a detail not shown here. Equal values may be shown once.

T1 sequence (Q9NZD1 whole entry): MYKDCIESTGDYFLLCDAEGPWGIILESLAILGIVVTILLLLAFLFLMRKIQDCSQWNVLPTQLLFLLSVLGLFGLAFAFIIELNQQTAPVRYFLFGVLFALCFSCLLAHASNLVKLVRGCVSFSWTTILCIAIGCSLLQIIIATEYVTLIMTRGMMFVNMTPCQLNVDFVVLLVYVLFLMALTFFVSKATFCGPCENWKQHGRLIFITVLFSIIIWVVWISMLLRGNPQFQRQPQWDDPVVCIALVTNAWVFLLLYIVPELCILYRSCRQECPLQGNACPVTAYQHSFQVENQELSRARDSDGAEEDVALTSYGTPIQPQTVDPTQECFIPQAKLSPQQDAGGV

One test concerns the target T1, human GPRC5D (human, UniProt Q9NZD1 1-345). Briefly: cell-based or functional assay.
With B1, the “CAR-J2 EC50 [ng/mL] (PGLALA-CAR-J activation, L363 target cells)” value (from here on “CAR-J2 EC50 [ng/mL]”) was found to be 23.5 ng/mL.

As for B2, the “CAR-J2 EC50 [ng/mL]” value amounted to 583 ng/mL.

As to B3, the “CAR-J2 EC50 [ng/mL]” value is 61.9 ng/mL.

As to B4, the “CAR-J2 EC50 [ng/mL]” value was determined as 8.89 ng/mL.

On to B5, for which the “CAR-J2 EC50 [ng/mL]” value is 82.1 ng/mL.

Regarding B6, the “CAR-J2 EC50 [ng/mL]” value turned out to be 1.38 ng/mL.

As for B7, the “CAR-J2 EC50 [ng/mL]” value was found to be 15.7 ng/mL.

With B8, the “CAR-J2 EC50 [ng/mL]” value stood at 170 ng/mL.

B9: the “CAR-J2 EC50 [ng/mL]” value was determined as 20.6 ng/mL.

Consider B10, for which the “CAR-J2 EC50 [ng/mL]” value is 82.6 ng/mL.

On to B11, for which the “CAR-J2 EC50 [ng/mL]” value amounted to 145 ng/mL.

In the case of B12, the “CAR-J2 EC50 [ng/mL]” value came to 8.96 ng/mL.

For B13, the “CAR-J2 EC50 [ng/mL]” value was determined as 397 ng/mL.

Take B14: the “CAR-J2 EC50 [ng/mL]” value was 84.2 ng/mL.

In the case of B15, the “CAR-J2 EC50 [ng/mL]” value worked out at 509 ng/mL.

Turning to B16, the “CAR-J2 EC50 [ng/mL]” value stood at 30 ng/mL.

As for B17, the “CAR-J2 EC50 [ng/mL]” value was found to be 190 ng/mL.

As to B18, the “CAR-J2 EC50 [ng/mL]” value came out at 152 ng/mL.

On to B19, for which the “CAR-J2 EC50 [ng/mL]” value was 74.6 ng/mL.

In the case of B20, the “CAR-J2 EC50 [ng/mL]” value was 41.5 ng/mL.

As to B21, the “CAR-J2 EC50 [ng/mL]” value was 78.2 ng/mL.

Turning to B22, the “CAR-J2 EC50 [ng/mL]” value came to 514 ng/mL.

For B23, the “CAR-J2 EC50 [ng/mL]” value stood at 183 ng/mL.

For B24, the “CAR-J2 EC50 [ng/mL]” value amounted to 2.95 ng/mL.

Consider B25, for which the “CAR-J2 EC50 [ng/mL]” value amounted to 6.44 ng/mL.

For B26, the “CAR-J2 EC50 [ng/mL]” value was 190 ng/mL.

The next test has as its target T1, human GPRC5D. The test is described as follows: cell ELISA, CHO hu GPRC5D (EC/IC50 rel). As for the experimental part: Stable transfected CHO clones expressing either human GPRCSD or cynomolgus GPRCSD or murine GPRCSD or human GPRCSA were used to analyze the binding of potential lead candidate antibodies as IgGs. In detail, 10⁴ cells (viability≥98%) were seeded into 384 well-microtiter plates (BD Poly D-Lysin, #356662, volume: 25 μl/well) using fresh culture medium. After overnight incubation at 37° C., 25 μl/well dilutions of antibodies were added (15×1:3 dilutions in 1×PBS, assay conc. starts at 30 μg/ml) to the cells for 2 hours at 4° C. After one washing step using 90 μl/well PBST (10×PBS, Roche, #11666789001+0.1% Tween 20), cells were subsequently fixed by the addition of 50 μl/well 0.05% glutaraldehyde (Sigma Cat. No: G5882 in 1×PBS) for 10 min at room temperature (RT). After three additional washing steps using 90 μl/well PBST, secondary antibodies were added for detection: for human antibodies goat anti-human Ig a chain antibody HRP conjugate (Millipore #AP502P) diluted 1:2000 in blocking buffer (1×PBS (Roche #11666789001)+2% BSA (Bovine Serum Albumin Fraction V, fatty acid free, Roche, #10735086001)+0.05% Tween 20) was used (25 μl/well). […] After incubation for 1 h at RT and three additional washing steps using 90 μl/well PBST, 25 μl/well TMB substrate was added (Roche order no. 11835033001) for 10 min and color development to final ODs was determined by measurement at 370 nm/492 nm.
For the characterization of the humanization variants of the VH and VL domains of the GPRC5D binders the ELISA protocol as described above was used (see Example 7). The data are summarized in the table 10 for the humanization variants of 5E11 and in table 11 for the humanization variants of 5F11.
A general note: ELISA stands for enzyme-linked immunosorbent assay.
The EC50 is the concentration giving half of the maximal effect. Low values mean a more potent agent, high ones a less potent agent. B1: the EC50 is 0.004 µg/mL and 0.03 nM.

On to B2, for which the EC50 is 0.0076 µg/mL and 0.05 nM.

Consider B3, for which the half-maximal effective concentration (EC50) is 0.0061 µg/mL and 0.04 nM.

On to B4, for which the EC50 is 0.009 µg/mL and 0.06 nM.

B5: the EC50 is 0.0066 µg/mL and 0.04 nM.

On to B6, for which the EC50 was 0.0037 µg/mL and 0.02 nM.

Turning to B7, the EC50 was 0.0031 µg/mL and 0.02 nM.

In the case of B8, the EC50 is 0.0078 µg/mL and 0.05 nM.

As to B9, the 50% effective concentration (EC50) is 0.0094 µg/mL and 0.06 nM.

As for B10, the EC50 is 0.0074 µg/mL and 0.05 nM.

As for B11, the EC50 is 0.0029 µg/mL and 0.02 nM.

Take B12: the EC50 was 0.0063 µg/mL and 0.04 nM.

In the case of B13, the EC50 was 0.0041 µg/mL and 0.03 nM.

For the molecule B14, the EC50 was 0.0046 µg/mL and 0.03 nM.

Regarding B15, the EC50 was 0.0062 µg/mL and 0.04 nM.

As for B16, the EC50 was 0.0104 µg/mL and 0.07 nM.

For B17, the EC50 is 0.0026 µg/mL and 0.02 nM.

Take B18: the half-maximal effective concentration (EC50) was 0.0078 µg/mL and 0.05 nM.

On to B19, for which the EC50 was 0.0037 µg/mL and 0.02 nM.

As for B20, the EC50 was 0.0055 µg/mL and 0.04 nM.

B21: the EC50 was 0.0045 µg/mL and 0.03 nM.

B22: the EC50 is 0.0107 µg/mL and 0.07 nM.

As to B23, the half-maximal effective concentration (EC50) is 0.009 µg/mL and 0.06 nM.

Consider B24, for which the EC50 was 0.0059 µg/mL and 0.04 nM.

As for B25, the EC50 was 0.0124 µg/mL and 0.08 nM.

Take B26: the EC50 is 0.004 µg/mL and 0.03 nM.
